How the values were obtained:
[1] = target: M2 protein of influenza A/Japan/305/57 (H2N2), on inactivated whole virions (Influenza A virus A/Japan/305/1957 (H2N2)) (UniProt Q6XU12); assay: ELISA, positive control antibody on inactivated whole virions
[2] = target: recombinant soluble homotrimeric HA of A/Common magpie/Hong Kong/5052/07 - H5N1 (Influenza A virus A/common magpie/Hong Kong/5052/2007 (H5N1)); assay: micro-array; captured IgG, V5-tagged trimeric HA
[3] = target: M2 protein of influenza A/Puerto Rico/8/34 (H1N1), on inactivated virus (Influenza A virus A/Puerto Rico/8/34 (H1N1)) (UniProt P06821); assay: surface plasmon resonance, Fab fragment on influenza virus

Chain of TCN-032 (8I10) (antibody) (VH): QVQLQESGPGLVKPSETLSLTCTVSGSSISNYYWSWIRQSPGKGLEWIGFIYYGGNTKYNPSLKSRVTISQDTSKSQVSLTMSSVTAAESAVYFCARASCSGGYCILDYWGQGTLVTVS
Chain of TCN-032 (8I10) (antibody) (VL): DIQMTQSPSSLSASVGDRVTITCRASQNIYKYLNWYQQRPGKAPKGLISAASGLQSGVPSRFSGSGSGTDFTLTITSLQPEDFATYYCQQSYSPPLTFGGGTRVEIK

TCN-032 (8I10) (antibody)
OD450 [1]: 3.61 OD450

TCN-202 (2N9) (antibody)
Trimeric HA Binding: RLU [2]: 1370 RLU

ch14C2 Fab fragment
Kd [3]: 4 µM | koff [3]: 0.0018 s⁻¹ | kon [3]: 500 M⁻¹ s⁻¹

Reference: patent US20120207760A1
